From patent US20210338751A1

What was measured:
[1] = molecular target: recombinant HuNoV GI.1 P domain (Human Norovirus (HuNoV) GI.1); assay: ELISA on recombinant HuNoV GI.1 P domain, Spirulina-expressed Ni-NTA purified protein, sample B1, not freeze-dried
[2] = molecular target: recombinant HuNoV GI.1 P domain (Human Norovirus (HuNoV) GI.1); assay: ELISA on recombinant HuNoV GI.1 P domain, Spirulina-expressed Ni-NTA purified protein after freeze-drying
[3] = molecular target: recombinant HuNoV GI.1 P domain (Human Norovirus (HuNoV) GI.1); assay: ELISA on recombinant HuNoV GI.1 P domain, Spirulina-expressed Ni-NTA purified protein, sample B2, not freeze-dried
[4] = molecular target: GII.10 VLPs (human norovirus genotype GII.10); assay: blocking of GII.10 VLP binding to pig gastric mucin (HBGA)
[5] = molecular target: recombinant HuNoV GII.10 P domain (Human Norovirus (HuNoV) GII.10); assay: ELISA on recombinant P domain
[6] = molecular target: recombinant HuNoV GII.17 P domain (Human Norovirus (HuNoV) GII.17); assay: ELISA on recombinant P domain
[7] = molecular target: recombinant HuNoV GII.4 P domain (Human Norovirus (HuNoV) GII.4); assay: ELISA on recombinant P domain
[8] = molecular target: recombinant HuNoV GII.3 P domain (Human Norovirus (HuNoV) GII.3); assay: ELISA on recombinant P domain

B1: Nano94 (no chaperone partner) (VHH)
VHH: QVQLQESGGGLVQAGGSLRLSCAASGRMFSINSMGWYRQAPGKERELVATISEAGTTTYADSVRGRFTIARDNAKNTVYLQMNSLNPEDTAVYYCNAYIQLDSTIWFRAYWGQGTQVTVSS
Q: How did the EC50 [1] turn out when B1 was run?
A: The EC50 was 21.2 nM.

Q: What about the EC50 [2] of the same binder?
A: The EC50 was 25.9 nM.

Q: And the EC50 [3]?
A: The EC50 was 17.1 nM.

B2: SP828 (VHH)
VHH: QVQLQESGGGLVQSGGSLRLSCAASRNINSMHVVGWYRQAPGNQRELVASITDDGSTDYVDSVKGRFTISRDIAENTVYLQMNSLNPEDTAVYYCKGTIVVFTTPMHYWGKGTQVTVSS
Q: For B2, which IC50 (read off the curve) [4] is on record?
A: The IC50 (read off the curve) was 1 µg/mL.

B3: Nano26-TxnA (VHH, not shown: large carriers)
VHH: QVQLQESGGGLVQPGGSLRLSCTAPRIIFFMYDVGWYRQAPEKQRELVAQINSDVSTKYADSVKGRFTISRDNAKRTVYLQMNDLKPEDAAVYYCNVRRASADYWGQGTQVTVSS
Q: Which EC50 [5] does the source give for B3 here?
A: The EC50 was 1.46 nM.

Q: And the EC50 [6]?
A: Its EC50 is 2.52 nM.

Q: And the EC50 [7]?
A: Its EC50 is 15.4 nM.

Q: What about the EC50 [8] of the same binder?
A: Its EC50 is 4.46 nM.
